{"source": "patent US20240181094A1", "about": "“[161Tb]-BASED RADIOPEPTIDES” (priority 2021, published 2024)", "key": {"AR42J tumor-bearing mice [1]": {"system": "AR42J tumor-bearing mice", "test": "Biodistribution studies: comparison of 161Tb- and 177Lu-labeled peptides", "details": "1 nmol/mouse, 2 h p.i."}, "AR42J tumor-bearing mice [2]": {"system": "AR42J tumor-bearing mice", "details": "female, CD-1 Foxn-1/nu athymic nude, mouse, in vivo, iv, 1 nmol/mouse, 24 h"}, "in vivo": {"test": "in vivo", "details": "female, mouse, iv, 1 nmol/mouse, total radioactivity"}}, "note": "Starred links: 1 amine or outer side, 2 acyl side, 3 side chain; linkers in the order of their positions; H or OH if unused. Positions of bridges follow the written chain, without caps; N, C: chain ends. Non-standard residues stand in square brackets, D forms with d. Residues, ends and D or L forms follow the SMILES beside them. *: point of attachment. DOTA = O=C(O)CN1CCN(CC(=O)O)CCN(CC(=O)*)CCN(CC(=O)O)CC1; X1 = NC(=O)Nc1ccc(CC(N[*:1])C(=O)[*:2])cc1; Phe(4-Cl) = N[CH](Cc1ccc(Cl)cc1)C(=O)O"}
{"smiles": "CC(O)C1NC(=O)C(CCCCN)NC(=O)C(Cc2ccc(NC(N)=O)cc2)NC(=O)C(Cc2ccc(O)cc2)NC(=O)C(NC(=O)C(Cc2ccc(Cl)cc2)NC(=O)CN2CCN(CC(=O)O)CCN(CC(=O)O)CCN(CC(=O)O)CC2)CSSCC(C(=O)NC(Cc2ccc(O)cc2)C(N)=O)NC1=O", "note": "(stereo not shown) [metal not drawn] ({DOTA}-[Phe(4-Cl)]CY[X1]KTCY-NH2; disulfide 2-7; configuration not given here)", "values": [{"measurement": "Femur uptake", "setting": "AR42J tumor-bearing mice [1]", "value": "0.20 ± 0.05", "unit": "% IA/g"}, {"measurement": "Lung uptake", "setting": "AR42J tumor-bearing mice [1]", "value": "1.0 ± 0.2", "unit": "% IA/g"}, {"measurement": "Muscle uptake", "setting": "AR42J tumor-bearing mice [2]", "value": "≤0.10", "unit": "% IA/g"}, {"measurement": "tissue uptake at 2 h", "setting": "in vivo; CD-1 Foxn-1/nu athymic nude", "value": "≤ 0.1", "unit": "%ID/g"}, {"measurement": "tissue uptake at 24 h", "setting": "in vivo; CD-1 Foxn-1/nu athymic nude", "value": "≤ 0.1", "unit": "%ID/g"}, {"measurement": "tissue uptake at 2 h", "setting": "in vivo; athymic nude CD-1 Foxn-1/nu", "value": "≤ 0.1", "unit": "%ID/g"}, {"measurement": "tissue uptake at 24 h", "setting": "in vivo; athymic nude CD-1 Foxn-1/nu", "value": "≤ 0.1", "unit": "%ID/g"}]}
